US20150361138A1 (INSTITUT NATIONAL DE LA RECHERCHE AGRONOMIQUE, published 2015)
Where two headings read alike, the source gives them in different places. *1 amine or outer side, *2 acyl side, *3 side chain or, on linkers, in order; H or OH if unused. Side-chain parts run from the residue outwards. [ ]: non-standard residue; d: D form. The star is where a group is joined. TTDS = 1,13-diamino-4,7,10-trioxatridecan-succinic acid spacer arm, O=C(CCC(=O)[*:2])NCCCOCCOCCOCCCN[*:1]; PEG5000 = COCH2CH2NH(CH2CH2O)nMe, about 5000 g/mol; γGlu = O=C(O)[C@H](CCC(=O)[*:2])N[*:1]; Arg(Me) = CNC(=N)NCCC[C@H](N)C(=O)O; Palmitoyl = CCCCCCCCCCCCCCCC(=O)*

B1: peptide compound C5, Ac-Tyr-Asn-Trp-Asn-Ser-PheΨ[Tz]GlyΨ[Tz]Leu-Arg-Tyr-NH2 (peptide)
peptide: Ac-YNWNSFGLRY-NH2
modifications: also: Phe6-Gly7 and Gly7-Leu8 peptide bonds replaced by 1,4-disubstituted 1,2,3-triazoles

What was measured:
Assay in all cases: cell-based or functional assay
human KISS1R receptor [1] = biological target: T1, human KISS1R receptor (human, UniProt Q969F8 1-398)
T1 sequence (Q969F8 whole entry): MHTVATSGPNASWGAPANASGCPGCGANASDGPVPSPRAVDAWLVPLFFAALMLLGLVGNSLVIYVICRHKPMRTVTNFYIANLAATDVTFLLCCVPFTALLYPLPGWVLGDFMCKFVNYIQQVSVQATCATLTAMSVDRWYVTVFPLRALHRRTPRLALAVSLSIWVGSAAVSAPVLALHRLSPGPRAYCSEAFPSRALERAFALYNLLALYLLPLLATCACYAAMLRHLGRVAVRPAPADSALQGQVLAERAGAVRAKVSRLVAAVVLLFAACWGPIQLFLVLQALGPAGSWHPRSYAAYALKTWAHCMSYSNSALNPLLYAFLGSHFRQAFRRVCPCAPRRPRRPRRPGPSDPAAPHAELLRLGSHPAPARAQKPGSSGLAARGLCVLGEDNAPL

human KISS1R receptor [2] = biological target: T1, human KISS1R receptor; remark: listed apart in the source
human KISS1R receptor [3] = biological target: T1, human KISS1R receptor; remark: listed apart in the source

Molecule | EC50 (nM), intracellular calcium mobilization of cells expressing human KISS1R (human KISS1R receptor [2]) [nM] | EC50 (nM), intracellular calcium mobilization of cells expressing human KISS1R (human KISS1R receptor [3]) [nM] | also measured
peptide compound C6, Ac-DTyr-DTrp-Asn-Thr-Phe-GlyΨ[Tz]Leu-Arg(Me)-Trp-NH2 |  |  | EC50 (nM), intracellular calcium mobilization of cells expressing human KISS1R (human KISS1R receptor [1]): 0.01 nM
peptide compound C7, Ac-DTyr-Hyp-Asn-Thr-Phe-GlyΨ[Tz]Leu-Arg(Me)-Trp-NH2 |  |  | EC50 (nM), intracellular calcium mobilization of cells expressing human KISS1R (human KISS1R receptor [1]): 0.014 nM
Ac-YNWNSFGLRY-NH2 (also: Gly7-Leu8 peptide bond replaced by 1,4-disubstituted 1,2,3-triazole) [peptide compound C2, Ac-Tyr-Asn-Trp-Asn-Ser-Phe-GlyΨ[Tz]Leu-Arg-Tyr-NH2] | 0.029 |  | 
Ac-YK([TTDS-γGlu-Palmitoyl])WNSFGLRY-NH2 (also: Gly7-Leu8 peptide bond replaced by 1,4-disubstituted 1,2,3-triazole) |  | 0.079 | 
H-YNWNSFGLRY-NH2 [comparative peptide compound Comp.1 (mKP10), H-Tyr-Asn-Trp-Asn-Ser-Phe-Gly-Leu-Arg-Tyr-NH2] | 2.9 |  | 
Ac-YNWNSFGLRY-NH2 [peptide compound Comp.3, Ac-Tyr-Asn-Trp-Asn-Ser-Phe-Gly-Leu-Arg-Tyr-NH2] | 0.1 |  | 
Ac-YK(2‑(succinamido)‑6‑(4-(4-iodophenyl)butanamido)hexanoate)WNSFGLRY-NH2 (also: Gly7-Leu8 peptide bond replaced by 1,4-disubstituted 1,2,3-triazole) |  | 0.001 | 
Ac-YK([γGlu-Palmitoyl])WNSFGLRY-NH2 (also: Gly7-Leu8 peptide bond replaced by 1,4-disubstituted 1,2,3-triazole) [peptide compound C8, Ac-Tyr-Lys(γ-(N-hexadecanoyl-Glu-OH))-Trp-Asn-Ser-Phe-GlyΨ[Tz]Leu-Arg-Tyr-NH2] |  | 1.38 | 
Ac-YK(PEG5000)WNSFGLRY-NH2 (also: Gly7-Leu8 peptide bond replaced by 1,4-disubstituted 1,2,3-triazole) [peptide compound C16, Ac-Tyr-Lys(PEG5000)-Trp-Asn-Ser-Phe-GlyΨ[Tz]Leu-Arg-Tyr-NH2] |  | 4.17 | 
{Palmitoyl-γGlu}-YNWNSFGL[Arg(Me)]Y-NH2 (also: Gly7-Leu8 peptide bond replaced by 1,4-disubstituted 1,2,3-triazole) [peptide compound C12, γ-(N-hexadecanoyl-Glu-OH)Tyr-Asn-Trp-Asn-Ser-Phe-GlyΨ[Tz]Leu-Arg(Me)-Tyr-NH2] |  | < 0.001 | 
Ac-YNK(Ac)NSFGL[Arg(Me)]Y-NH2 (also: Gly7-Leu8 peptide bond replaced by 1,4-disubstituted 1,2,3-triazole) [peptide compound C4, Ac-Tyr-Asn-Lys(Ac)-Asn-Ser-Phe-GlyΨ[Tz]Leu-Arg(Me)-Tyr-NH2] | 0.011 |  | 
Ac-YNWNSFGL[Arg(Me)]Y-NH2 (also: Gly7-Leu8 peptide bond replaced by 1,4-disubstituted 1,2,3-triazole) [peptide compound C3, Ac-Tyr-Asn-Trp-Asn-Ser-Phe-GlyΨ[Tz]Leu-Arg(Me)-Tyr-NH2] | 0.014 |  | 
Ac-YNK([γGlu-Palmitoyl])NSFGLRY-NH2 (also: Gly7-Leu8 peptide bond replaced by 1,4-disubstituted 1,2,3-triazole) [peptide compound C11, Ac-Tyr-Asn-Lys(γ-(N-hexadecanoyl-Glu-OH))-Asn-Ser-Phe-GlyΨ[Tz]Leu-Arg-Tyr-NH2] |  | 90 | 
H-YNWNSFGLRY-NH2 (also: Gly7-Leu8 peptide bond replaced by 1,4-disubstituted 1,2,3-triazole) [peptide compound C1, H-Tyr-Asn-Trp-Asn-Ser-Phe-GlyΨ[Tz]Leu-Arg-Tyr-NH2] | 0.5 |  | 
B1 | 44 |  | 
{Palmitoyl-γGlu}-YNWNSFGLRY-NH2 (also: Gly7-Leu8 peptide bond replaced by 1,4-disubstituted 1,2,3-triazole) [peptide compound C9, γ-(N-hexadecanoyl-Glu-OH)-Tyr-Asn-Trp-Asn-Ser-Phe-GlyΨ[Tz]Leu-Arg-Tyr-NH2] |  | < 0.001 | 
